{
  "source": "patent US20140072558A1",
  "biological_target": "ACVR2B as used in surface plasmon resonance (UniProt Q13705)",
  "sequence (Q13705 19-134)": "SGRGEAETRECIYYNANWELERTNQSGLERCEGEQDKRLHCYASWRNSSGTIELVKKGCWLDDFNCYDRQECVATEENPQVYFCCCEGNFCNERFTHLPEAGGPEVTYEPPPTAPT",
  "assay": "SPR; with 0.625 nM B09",
  "data": [
    {"substance": "water-soluble DLK1 treated together with the B09 antibody (from UniProt P80370 25-302)", "values": [
      {"measurement": "Kd", "result": "4.07E-10 ?"}
    ]}
  ]
}
